From IntAct's records for PubMed 25009770

How the values were obtained:
psmd9_human PSMD9 [1] = target: T1, psmd9_human PSMD9 (UniProt O00233)
T1 sequence: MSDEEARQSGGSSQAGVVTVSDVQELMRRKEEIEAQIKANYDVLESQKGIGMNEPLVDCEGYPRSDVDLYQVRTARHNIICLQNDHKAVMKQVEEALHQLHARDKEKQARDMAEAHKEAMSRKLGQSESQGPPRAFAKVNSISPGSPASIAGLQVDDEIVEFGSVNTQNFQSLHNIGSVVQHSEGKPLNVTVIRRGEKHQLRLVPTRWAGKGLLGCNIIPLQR

psmd9_human PSMD9 [2] = target: T1, psmd9_human PSMD9; remark: listed apart in the source

## Small ribosomal subunit protein uS11 (Homo sapiens) (from UniProt P62263) L151G
psmd9_human PSMD9 [1]
  effect of a mutation on the interaction: disrupting interaction strength
psmd9_human PSMD9 [2]
  effect of a mutation on the interaction: decreasing interaction strength
